The results in this text go back to patent publication US20250188133A1, “CHIMERIC BACTERIOCINS AND METHOD FOR THE CONTROL OF PSEUDOMONAS” (priority 2022, published 2025).

Values joined by “and” are separate entries in the source; they are usually repeats but may differ in a detail not shown here. Equal entries are not always repeated.

Experiment [1] deals with P. aeruginosa ATCC 19660. Put plainly: MIC by agar dilution method. Type of experiment: cell-based. To be noted: against ATCC 19660; CAA agar with 0.1 mg/ml BSA. As for the experimental part: (§1) Aliquots of melted CAA (1.5% agar) medium (final volume—25 ml) pre-wormed to 51° C. were supplemented with 0.1 mg/ml BSA and with appropriate amounts of pyocin stock solutions of different concentrations (concentrations lowered by a factor of 2). Aliquots were poured into Petri plates. P. aeruginosa cultures were grown from single colony in CAA medium at 37° C., 200 rpm until OD595=0.2 and diluted to 10^7 CFU/ml in CAA medium. 1 μL of bacteria suspension were applied in three replicates on each test plate. Plates were left to incubate in 37° C. overnight. The determined MIC is a concentration of pyocin, where no confluent bacterial growth is observed.

For experiment [2], the system named is P. aeruginosa PAO1. Put plainly: MIC by agar dilution method. The format is cell-based. To be noted: against PAO1; CAA agar with 0.1 mg/ml BSA. As for the experimental part: as §1
(In agar dilution, organisms are placed on agar that contains the substance at set levels.)

Experiment [3] deals with P. aeruginosa ATCC 19660. As to the kind of experiment: murine keratitis model, cytotoxic strain (C57BL/6 mice). Type of experiment: in vivo. The conditions noted are these: for viable bacteria isolated, one mouse: only mouse with viable bacteria. As for the experimental part: (§2) The inbred mice of C57BL/6 strain of both sexes in equivalent numbers were used for the research. 2-6 months old, adult female and adult male mice were purchased from the Vilnius University vivarium of laboratory animals. The animals throughout the period of the experiment were given standard chow and drinking water ad libitum. Animals were housed in the individual plastic cages in a 12 h light/dark cycle at 21-23° C. All regulated procedures on living animals were approved by The Lithuanian Ethics Committee of Biomedical Research (Protocol no. B1-442) and were carried out in accordance with the European Union legislation of OECD (directive 2010/63/EU). The experiments were carried out in Biological research center of Lithuanian University of Health Sciences.
(§3) For P. aeruginosa infection and keratitis induction the mice were anesthetized by Ketamine and Xylazine 90:9 mg/kg intraperitoneal injection. The cornea of the left eye of each mouse was visualized under a stereoscopic microscope, and three 1 mm scratches were made using a sterile 25 gauge needle. A 10 μL aliquot containing 4×10^6 cells of P. aeruginosa ATCC 19660 (cytotoxic strain) or PAO1 ATCC 15692 (invasive strain) was applied to the corneal surface. Depending on the experiment, the treatment was started 30 min or 6 h post infection. 10 μl aliquot containing 0.14 mg of tobramycin or 20 μg of S5-PmnH (both containing 0.5% hydroxypropyl methylcellulose (HPMC)) or PBS containing 0.5% HPMC was applied as one drop of substance to the each eye. HPMC is used as artificial tears and was used in order to thicken the tears film and prolong the presence of the applied product on the surface of the cornea. The treatment was continued for five days twice daily. Mice were euthanized by cervical dislocation 1, 3, 5 days post infection, and the eyeballs were collected and homogenized for viable bacteria count.
(§4) The eyes were examined and photographed with a dissection microscope equipped with a digital camera at 1, 3 and 5 dpi to monitor the disease progression. At 1, 3 and 5 dpi disease severity was visually graded by using an established corneal damage scale: 0, the pupil was partially or fully covered by clear or slight opacity; +1, the anterior segment was partially or fully covered by slight opacity; +2, the pupil was partially or fully covered by dense opacity; +3, the entire anterior segment was covered by dense opacity; and +4, corneal perforation^40.
(§5) Histopathology experiments were carried out at Lithuanian University of Health Sciences, Department of Veterinary Pathobiology of Veterinary Academy. One randomly chosen mice of each study group was used for histopathology experiments. Enucleated eyes were preserved in 10% formaldehyde. Eyes were paraffin-embedded, cut into 3-μm-thick sections, deparaffinised, rehydrated and used for preparation of hematoxylin/eosin stained samples.

Experiment [4] relates to P. aeruginosa PAO1. As to the kind of experiment: murine keratitis model, invasive strain (C57BL/6 mice). Type of experiment: in vivo. As for the experimental part: as §2, §3, §4, §5
Where [5] appears, read: treatment started 30 min post infection.
The mark [6] stands for this setting: treatment started 6 h post infection, 1 dpi.

B1: S5-PmnH (protein)
chain: MSNDNEVPGSMVIVAQGPDDQYAYEVPPIDSAAVAGNMFGDLIQREIYLQKNIYYPVRSIFEQGTKEKKEINKKVSDQVDGLLKQITQGKREATRQERVDVMSAVLHKMESDLEGYKKTFTKGPFIDYEKQSSLSIYEAWVKIWEKNSWEERKKYPFQQLVRDELERAVAYYKQDSLSEAVKVLRQELNKQKALKEKEDLSQLERDYRTRKANLEMKVQSELDQAGSALPPLVSPTPEQWLERATRLVTQAIADKKQLQTTNNTLIKNSPTPLEKQKAIYNGELLVDEIASLQARLVKLNAETTRRRTEKELTPDEKAAYTDAVSFVSTANEQMLQKYGANLSKVAQDMQAEIAGKKVRSYAEAMATFEKISANPAMKLNALDTQAVVDALNALDKASFADNITRLGKAFGVVGKVVQAEAIREKTVSGFQTGDWKPLMLELEAMAVGTGAGILLATSMAFFFPVFASAAAGVVVVALMMAATAAYFDAAKVDEINNLILN
modifications: Chimeric S5-PmnH
For the molecule B1, the entries for the “MIC determined by agar dilution method” value in experiment [1] and in experiment [2] were 32 µg/mL and 4 µg/mL, respectively. Also, the “histopathology of infected treated eyes” value in experiment [3] (setting [5]) is reported as “Only weak oedema in the corneal stroma”; in experiment [3] (setting [6]) it was “signs of acute inflammation of cornea”; in experiment [3] (treatment started 6 h post infection, 3 and 5 dpi) it was “no marked aberrations”. In experiment [3] (setting [5]), the “signs of disease (visual inspection, clinical score)” value is “No signs of disease were observed in majority of samples”. Also, the “viable bacteria isolated from infected eyes” value in experiment [3] (treatment started 30 min post infection, twice daily, 1, 3 or 5 dpi, 20 μg S5-PmnH or 0.14 mg tobramycin per eye) was “no viable P. aeruginosa were isolated”. In addition, the clinical score evaluation entry in experiment [3] (treatment started 6 h post infection, 1 and 3 dpi, two S5-PmnH-treated and one tobramycin-treated mice) is “Only mild disease signs were observed”; in experiment [3] (treatment started 6 h post infection, 5 dpi), “all corneas were completely clear”. In addition, the “viable bacteria isolated, one mouse” value turned out to be 3.6 log10 CFU/cornea in experiment [3] (setting [6]) and 5 log10 CFU/cornea in experiment [3] (treatment started 6 h post infection, 3 dpi). Also, the viable bacteria isolated entry in experiment [3] (treatment started 6 h post infection, 5 dpi, three mice) is recorded as “No viable bacteria were isolated”. Also, the “histological examination of infected treated eyes” value is recorded as “signs of acute inflammation of cornea” in experiment [4] (1 dpi), “signs of acute inflammation of cornea” in experiment [4] (3 dpi) and “no aberrations” in experiment [4] (day 5). Moreover, the “average reduction of bacterial burden vs mock-treated” value in experiment [4] (setting [6]) is on record as 1.04 log 10 CFU/cornea. In addition, the “viable bacteria in cornea, individual mouse” value in experiment [4] (treatment started 6 h post infection, 3 dpi, third mouse) amounted to 2.38 log 10 CFU. Moreover, the “mice from which no viable bacteria were isolated” value in experiment [4] (treatment started 6 h post infection, 3 dpi, three mice per group) was “two”. For the same molecule, in experiment [4] (treatment started 6 h post infection, 5 dpi, mice with bacteria), the “viable bacteria in cornea, individual mice” value is 5.14 log 10 CFU/cornea and 3.34 log 10 CFU/cornea. In addition, the “mice from which no bacteria were isolated” value in experiment [4] (treatment started 6 h post infection, 5 dpi, three mice per group) is “one”.
